Assay results published in patent publication US20090291081A1 (AbbVie / Abbott, published 2009).

Legend:
human IL-1β [1] = target: T1, human IL-1β (human, UniProt P01584 117-269); experiment: cell-based or functional assay
human IL-1β [2] = target: human IL-1β (human, UniProt P01584 117-269); experiment: cell-based or functional assay; remark: listed apart in the source
human IL-1β [3] = target: T1, human IL-1β; experiment: IC50 column of Table 63; receptor binding assay presumed

| Binder | ND50 (human IL-1β [1]) | IL-1β IC50 (human IL-1β [2]) | IC50 (human IL-1β [3]) |
| --- | --- | --- | --- |
| ABT2-13 (other) VH: EVQLLESGGGLVQPGGSLRLSCAASGFTFRDYVMYWARQAPGKGLEWVSRIDPMGSSTYYADSVKGRFTISRDNSKNTLYLQMNSLRAEDTAVYYCAKPEGNFDYWGQGTLVTVSS | 1000 nM |  | 175 nM |
| ABT2-43 (other) VL: DIQMTQSPSSLSASVGDRVTITCRASQNIDTYLTWYQQKPGKAPRLLIYGASTLQSGVPSRFSGSGSGTDFTLTISSLQPEDFATYYCQQRAYYPTTFGQGTKVEIKR | > 10000 nM |  |  |
| ABT2-60 (other, VK dAb) VL: DIQMTQSPSSLSASVGDRVTITCRASQSIRVFLSWYQQKPGKAPKLLIYNASNLQSGVPSRFSGSGSGTDFTLTISSLQPEDFATYYCQQRALYPTTFGQGTKVEIKR | > 1000 nM |  | 1000 nM |
| ABT2-61 (other, VK dAb) VL: DIQMTQSPSSLSASVGDRVTITCRASQSIRVFLSWYQQKPGKAPKLLIYNASHLQSGVPSRFSGSGSGTDFTLTISSLQPEDFATYYCQQRALYPTTFGQGTKVEIKR | > 1000 nM |  | 1000 nM |
| ABT2-59 (other, VK dAb) VL: DIQMTQSPSSLSASVGDRVTITCRASQSINVFLSWYQQKPGKAPKLLIYNASNLQSGVPSRFSGSGSGTDFTLTISSLQPEDFATYYCQQRALYPTTFGQGTKVEIKR | > 1000 nM |  | 700 nM |
| ABT2-35 (other) VH: EVQLLESGGGLVQPGGSLRLSCAASGFTFGEYDMAWVRQAPGKGLEWVSVIYAWGTSTYYADSVKGRFTISRDNSKNTLYLQMNSLRAEDTAVYYCAKMGGGLVSLPQSKFDYWGQGTLVTVSS | > 10000 nM |  |  |
| ABT2-65-510 (other) VH: EVQLLESGGGLVQPGGSLRLSCVASGFTFEDYQMGWVRQAPGKGLEWVSSISAMGNRTYYADSVKGRFTISRDDSENTLYLQMNSLRAEDTAVYYCAQNLVRLGRSRWMFDYWGQGTLVTVSS | 1 nM |  |  |
| ABT2-65-163 (other) VH: EVQLLESGGGLVQPGGSLRLSCVASGFTFEDYQMGWVRQAPGKGLEWVSSISAMGGRTYYADSVKGRFTISRDDSKNTLYLQMNSLRAEDTAVYYCAQNLVRLGRSRWMFDYWGQGTLVTVSS | 2 nM |  |  |
| ABT2-65-34 (other) VH: EVQLLESGGGLVQPGGSLRLSCAASGFTFEDYQMGWVRQAPGKGLEWVSSISAMGNRTYYADSVKGRFTISRDDSKNTLYLQMNSLRAEDTAVYYCAQNLVRTRSKRWMFDYWGQGTLVTVSS | 20 nM |  |  |
| ABT2-65-160 (other) VH: EVQLLESGGGLVQPGGSLRLSCVASGFTFEDYQMGWVRQAPGKGLEWVSSISAMGPRTYYADSVKGRFTISRDDSKNTLYLQMNSLRAEDTAVYYCAQNLVRLGRSRWMFDYWGQGTLVTVSS | 2 nM |  |  |
| ABT2-72 (other) VH: EVQLLESGGGLVQPGGSLRLSCAASGFTFRAYDMGWVRQAPGKGLEWVSVIYAWGTSTYYADSVKGRFTISRDNSKNTLYLQMNSLRAEDTAVYYCAKTSSDGFDYWGQGTLVTVSS | > 10000 nM |  |  |
| ABT2-76 (other) VL: DIQMTQSPSSLSASVGDRVTITCRASQSIDRWLAWYQQKPGKAPKLLIYRGSILQSGVPSRFSGSGSGTDFTLTISSLQPEDFATYYCQQVAFWPPTFGQGTKVEIKR | 500 nM |  |  |
| ABT2-10 (other) VH: EVQLLESGGGLVQPGGSLRLSCTASGFTFNRYNMAWARQAPGKGLEWVSEIDLKGSQTYYADSVKGRFTISRDNSKNTLYLQMNSLRAEDTAVYYCAKVSISAYHMFDYWGQGTLVTVSS | 6000 nM |  |  |
| ABT2-64 (other) VH: EVQLLESGGGLVQPGGSLRLSCAASGFTFDDYGMGWVRQAPGKGLEWVSLIYPFGGGTYYADSVKGRFTISRDNSKNTLYLQMNSLRAEDTAVYYCAKVTQTGKFDYWGQGTLVTVSS | > 10000 nM |  |  |
| ABT2-108-533X (other) VH: EVQLLESGGGLVQPGGSLRLSCAASGFTFADEGMMWVRQAPGKGLEWVSRIGQDGKNTYYADSVKGRFTISRDNSKNTLYLQMNSLRAEDTAVYYCAKYTGRILGHHLFDYWGQGTLVTVSS | 5 nM |  |  |
| ABT2-108-537X (other) VH: EVQLLESGGGLVQPGGSLRLSCAASGFTFADEGMMWVRQAPGKGLEWVSRIGQDGKNTYYRMDVKGRFTISRDNSKNTLYLQMNSLRAEDTAVYYCAKYTGRILGHHLFDYWGQGTLVTVSS | 206 nM |  |  |

Continued, values first:

| ND50 (human IL-1β [1]) | IL-1β IC50 (human IL-1β [2]) | IC50 (human IL-1β [3]) | Binder |
| --- | --- | --- | --- |
| > 10000 nM |  |  | ABT2-68 (other) VL: DIQMTQSPSSLSASVGDRVTITCRASQNIWYHLNWYQQKPGKAPKLLIYLGSRLQSGVPSRFSGSGSGTDFTLTISSLQPEDFATYYCQQIHHDPFTFGQGTKVEIKR |
|  | 150 nM |  | ABT2-108/ABT1-141-25 hu IgG1/K wt (bispecific antibody, V domains shown) VH: EVQLLESGGGLVQPGGSLRLSCAASGFTFAEYTMMWVRQAPGKGLEWVSRIGQDGKNTYYADSVKGRFTISRDNSKNTLYLQMNSLRAEDTAVYYCAKYTGRVGVHHLFDYWGQGTLVTSS VL: DIQMTQSPSSLSASVGDRVTITCRASQWIQKQLAWYQQKPGKAPKLLIYSSSYLQSGVPSRFSGSGSGTDFTLTISSLQPEDFATYYCQQHLRVPMTFGQGTKVEIKR |
| > 20000 nM |  |  | ABT2-6 (other) VL: DIQMTQSPSSLSASVGDRVTITCRASQSIGLLLTWYQQKPGKAPKLLIYMASQLQSGVPSRFSGSGSGTDFTLTISSLQPEDFATYYCQQWHRPPSTFGQGTKVEIKR |
| > 20000 nM |  |  | ABT2-7 (other) VL: DIQMTQSPSSLSASVGDRVTITCRASQSIKSGLNWYQQKPGKAPKLLIYMASQLQSGVPSRFSGSGSGTDFTLTISSLQPEDFATYYCQQWHRPPSTFGQGTKVEIKR |
| > 20000 nM |  |  | ABT2-8 (other) VL: DIQMTQSPSSLSASVGDRVTITCRASQSIKSMLAWYQQKPGKAPKLLIYMASNLQSGVPSRFSGSGSGTDFTLTISSLQPEDFATYYCQQTIVKPSTFGQGTKVEIKR |
| > 1000 nM |  | 1000 nM | ABT2-62 (other, VK dAb) VL: DIQMTQSPSSLSASVGDRVTITCRASQSIQTYLSWYQQKPGKAPKLLIYNASNLQSGVPSRFSGSGSGTDFTLTISSLQPEDFATYYCQQRALYPTTFGQGTKVEIKR |
| 505 nM |  | 100 nM | ABT2-65 (other) VH: EVQLLESGGGLVQPGGSLRLSCAASGFTFEDYQMGWVRQAPGKGLEWVSSISAMGNRTYYADSVKGRFTISRDDSKNTLYLQMNSLRAEDTAVYYCAKNLVRTQSKMWMFDYWGQGTLVTVSS |
| 3 nM |  |  | ABT2-65-512 (other) VH: EVQLLESGGGLVQPGGSLRLSCVASGFTFEDYQMGWVHQAPGKGLEWVSSISAMGNRTYYADSVKGRFTISRDDSKNTLYLQMNSLRAEDTAVYYCAQNLVRLGRSRWMFDYWGQGTLVTVSS |
| 2 nM |  |  | ABT2-65-502 (other) VH: EVQLLESGGGLVQPGGSLRLSCVASGFTFEDYQMGWVRQAPGKGLEWVSSVSAMGNRTYYADSVKGRFTISRDGSKNTLYLQMNSLRAEDTAVYYCAQNLVRLGRSRWMFDYWGQGTLVTVSS |
| 4 nM |  |  | ABT2-65-35 (other) VH: EVQLLESGGGLVQPGGSLRLSCVASGFTFEDYQMGWVRQAPGKGLEWVSSISAMGNRTYYADSVKGRFTISRDDSKNTLYLQMNSLRAEDTAVYYCAQNLVRLRRSRWMFDYWGQGTLVTVSS |
| > 10000 nM |  |  | ABT2-69 (other) VH: EVQLLESGGGLVQPGGSLRLSCAASGFTFTGYDMAWVRQAPGKGLEWVSVIYAYGESTYYADSVKGRFTISRDNSKNTLYLQMNSLRAEDTAVYYCAKVYSNQFDYWGQGTLVTVSS |
| > 10000 nM |  |  | ABT2-67 (other) VL: DIQMTQSPSSLSASVGDRVTITCRASQYIGEHLAWYQQKPGKAPKLLIYHNSALQSGVPSRFSGSGSGTDFTLTISSLQPEDFATYYCQQHAFLPNTFGQGTKVEIKR |
| > 10000 nM |  |  | ABT2-39 (other) VH: EVQLLESGGGLVQPGGSLRLSCAASGFTFRAYDMGWVRQAPGKGLEWVSVIYAWGTSTYYADSVKGRFTISRDNSKNTLYLQMNSLRAEDTAVYYCAKIDRDASLPTGEGFDYWGQGTLVTVSS |
| 5 nM |  |  | ABT2-108-538X (other) VH: EVQLLESGGGLVQPGGSLRLSCAASGFTFADEGMMWVRQAPGKGLEWVSRITYSGKNTYYADSVKGRFTISRDNSKNTLYLQMNSLRAEDTAVYYCAKYTGRILGHHLFDYWGQGTLVTVSS |
| > 10000 nM |  |  | ABT2-66 (other) VH: EVQLLESGGGLVQPGGSLRLSCAASGFTFSHYTMAWVRQAPGKGLEWVSTIGSSGNSTYYADSVKGRFTISRDNSKNTLYLQMNSLRAEDTAVYYCAQMRGPYYTFDYRGQGTLVTVSS |
| 4 nM |  |  | ABT2-65-504 (other) VH: EVQLLESGGGLVQPGGSLRLSCVASGFTFEDYQMGWVRQAPGKGLERVSSVSAMGNRTHYADSVKGRFTISRDDSKNTLYLQMNSLRAGDTAVYYCAQNLVRLGRSRWMFDYWGQGTLVTVSS |
| > 10000 nM |  |  | ABT2-11 (other) VH: EVQLLESGGGLVQPGGSLRLSCAASGFTFDNYSMTWVRQAPGKGLEWVSAISGSGGSTYYADSVKGRFTISRDNSKNTLYLQMNSLRAEDTAVYYCAKCIDRLPCLFDYWGQGTLVTVSS |
